Data on 8 molecules can be found in patent publication US20220220215A1 (CRESCENDO BIOLOGICS, published 2022).

The target in experiment [1] is T1, human CD137 expressed on CHO cells (human, UniProt Q07011 18-255).
T1 construct: also called CHO huCD137; CHO human CD137 cells
In words: FMAT/Mirrorball on CHO huCD137 cells. In outline: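 His-tagged VH molecules bound to CHO cells expressing human PD-1 or human CD137, with CHO parent cells as control, in PBS pH 7.4, 0.1% BSA, 0.05% sodium azide. Read by FMAT on Mirrorball (ex 488/640 nm); binding taken as FL2 median fluorescence intensity of FL5-gated events.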

Experiment [2] has as its target T2, human CD137-Fc recombinant protein (Acro Biosystems 41B-H5258) (human, UniProt Q07011 24-186).
T2 construct: Bought protein; The Octet paragraph gives no catalogue number for its human CD137-Fc; also called hCD137-Fc; CD137-Fc tagged protein
Briefly: BLI (Octet RED384), CD137-Fc on Protein G sensor, 1:1 model. How it is done:
(§1) Binding kinetics of purified monovalent VH molecules were measured on a ForteBio Octet RED 384 instrument. Human and Rhesus CD137-Fc tagged protein was diluted to 5 μg/ml in kinetics buffer (0.05% Tween, 1×PBS) and coupled to Protein G biosensors (ForteBio cat no. 18-5082) via the Fc tag. VH were serially diluted (typically 1:2 dilution series starting with 200 nM, VH at the highest concentration) and binding to the CD137-Fc-coupled Protein G biosensors measured. Binding kinetics were determined from the (blank subtracted) sensor gram trace using 1:1 binding models and ForteBio Octet Data Analysis 9.0 software. Example kinetic and binding affinity data obtained is shown Table 18 (monovalent VH).
(BLI is a label-free optical method that tracks binding on a fibre tip over time.)

For experiment [3], the target named is T3, Rhesus CD137-Fc tagged protein (rhesus, UniProt H9Z8K9 24-186).
T3 construct: extracellular domain; The Octet paragraph gives no catalogue number; also called rhCD137-Fc
The description is as above. The procedure:
as §1

Experiment [4] addresses human CD137 expressed on cells (Jurkat human CD137 NF-kB luciferase reporter cells; human CD8+ T cells) (human, UniProt Q07011 24-255). In words: cell-based or functional assay.
Experiment [5] deals with T4, recombinant Fc-tagged ectodomain of human CD137 (Acro Biosystems 41B-H5258) (human, UniProt Q07011 24-186).
T4 construct: Bought protein; not shown: Fc tag
In words: SPR, Biacore 8K, single-cycle kinetics; Fc-tagged ectodomain captured on Protein G chip; 1:1 model. How it is done: (§2) Binding of Humabody® VH constructs was measured using a single-cycle kinetics method using the BIAcore 8K instrument with 90 second sample injections with a sample concentration range of low nanomolar to high nanomolar. […] The Protein G sensor surface was regenerated with a 20 second injection of 10 mM Glycine buffer, pH 1.5 (GE Healthcare BR100354). Data were analysed using a 1:1 binding model in Biacore Insight Evaluation software, including Humabody® VH constructs with two PD-1 arms.
On the technique in general: SPR reads the build-up and loss of mass on a sensor chip optically.

Experiment [6] deals with T5, recombinant Fc-tagged ectodomain of cynomolgus CD137 (R&D S9324-4b) (cynomolgus macaque, UniProt A9YYE7 24-186).
T5 construct: Bought protein; also called Cyno CD137; cynomolgus macaque CD137; not shown: Fc tag and any linker to it
The description is as above. The procedure:
as §2

Experiment [7] deals with T6, recombinant Fc-tagged ectodomain of human PD1 (Acro Biosystems PD1-H5257) (human, UniProt Q15116 25-170).
T6 construct: Bought protein; not shown: Fc tag
The experiment is described as above. The procedure:
as §2

Experiment [8] concerns the target T7, recombinant Fc-tagged ectodomain of cynomolgus PD1 (Acro Biosystems PD1-C5254) (cynomolgus macaque, UniProt B0LAJ3 25-170).
T7 construct: Bought protein; also called Cyno PD1; cynomolgus macaque PD1; not shown: Fc tag and any linker to it
The description is as above. The procedure: as §2

In experiment [9] the target is T8, biotinylated human CD137-His (human, UniProt Q07011 24-186, biotinylated).
T8 construct: not shown: His tag
In words: SPR, Biacore 8K, multi-cycle kinetics; biotinylated antigen captured on streptavidin chip; 1:1 model. The procedure:
(§3) Multi cycle kinetics assays were then used to evaluate the kinetics and affinity of the interaction. Experiments were performed at […] in HBS-EP+ assay buffer with a flow rate of 30 μl/minute. A streptavidin chip (Streptavidin (SA), Series S, GE Healthcare BR100531) was used to capture the biotinylated human CD137 or human PD-1 reaching a maximum of 75RU or 200RU respectively. A second flow cell without any captured antigen was used as the reference cell. […] The binding kinetics were followed by flowing these over the chip surface. The contact time for the binding steps was 360 or 180 seconds and the dissociation step was 3600 or 1200 seconds for human CD137 and PD1 respectively. After each run, the sensors were regenerated with glycine pH 1.5 to remove the captured Humabody® VH. The data was fitted to a 1:1 binding model after reference subtraction using the Biacore Evaluation software. Example kinetic and binding affinity data obtained is shown Table 19.

Experiment [10] deals with T9, biotinylated human PD-1-His tagged protein (human, UniProt Q15116 25-170, biotinylated).
T9 construct: not shown: His tag
The description is as above. How it is done:
as §3

B1: 003BB172-E01-1 (VHH)
VHH: EVQLVESGGGLVQPGGSLRLSCAASGFTFSNYGMHWVRQAPGKGLEWVAVISNDGNTKTYADSVKGRFTISRDNSKNMLYLQMTSLRTEDTAVYYCAQDETTTVTASYYFDYWGQGTLVTVSS
notes: Human VH single domain antibody, monovalent
The term EC50 denotes the concentration that produces a half-maximal response. Read a high EC50 as lower potency in that assay. By Kd is commonly meant the constant that tells how readily two partners part at equilibrium. One may read the koff as the first-order rate constant of dissociation. A word on the kon: it is a measure of how fast the partners come together. With B1, the midpoint of the response in experiment [1], the EC50, lay at 1.35 nM. In [2], the Kd came out at 17.8 nM, the koff turned out to be 0.00214 s⁻¹ and the on-rate constant (kon) was found to be 120000 M⁻¹ s⁻¹. In experiment [3], this molecule yielded a Kd of 21.9 nM, a koff of 0.00267 s⁻¹ and a kon of 122000 M⁻¹ s⁻¹.

B2: 003BB172-E01-2 (VHH)
VHH: EVQLVESGGGLVQPGGSLRLSCAASGFTFSNYGMHWVRQAPGKRLEWVAVISNDGNTKTYADSVKGRFTISRDNSKNTLYLQMTSLRTEDTAVYYCAQDETTTVTASYYFDYWGQGTLVTVSS
notes: as for B1
In experiment [1], B2 registered an EC50 of 1.74 nM. Besides, in experiment [2], the Kd turned out to be 18.6 nM, the koff came to 0.00137 s⁻¹ and the kon was 73200 M⁻¹ s⁻¹. Besides, in experiment [3], binding was characterised by a dissociation constant (Kd) of 25.9 nM, the koff was 0.00159 s⁻¹ and the kon was 61300 M⁻¹ s⁻¹.

B3: 003BB172-E01-4 (VHH)
VHH: EVQLVESGGGLVQPGGSLRLSCAASGFTFSNYGMHWVRQAPGKGLEWVAVISNDGNTKTYADSVKGRFTISRDNSKNTLYLQMTSLRTEDTAVYYCAQDETTTVTASYYFDYWGQGTLVTVSS
notes: as for B1
As for B3, the concentration giving a half-maximal response (EC50) in experiment [1] came to 1.33 nM. Moreover, in [2], the Kd turned out to be 25.7 nM, the off-rate constant (koff) stood at 0.00184 s⁻¹ and the kon was found to be 71600 M⁻¹ s⁻¹. Further, in experiment [3], the Kd was 32.2 nM, the off-rate constant (koff) worked out at 0.00216 s⁻¹ and the kon was 67100 M⁻¹ s⁻¹.

B4: 003BB172-E01-3 (VHH)
VHH: EVQLVESGGGLVQPGGSLRLSCAASGFTFSNYGMHWVRQAPGKRLEWVAVISNDGNTKTYADSVKGRFTISRDNSKNMLYLQMNSLRTEDTAVYYCAQDETTTVTASYYFDYWGQGTLVTVSS
notes: as for B1
In the case of B4, in [1], the EC50 was 1.06 nM. Also, in experiment [2], the dissociation constant (Kd) is 24.5 nM, the koff came out at 0.00161 s⁻¹ and the association rate constant (kon) turned out to be 66000 M⁻¹ s⁻¹. Further, in experiment [3], binding was put at a Kd of 24.8 nM, the koff worked out at 0.00157 s⁻¹ and the kon came out at 55300 M⁻¹ s⁻¹.

B5: TPP-1247 CD137A-6GS-HSA3-6GS-PD138G7(G109D) (bispecific antibody)
chain: EVQLVESGGGLVQPGGSLRLSCAASGFTLSNYWMNWVRQAPGKGLEWVANINQDGSERYYVDSVKGRFTISRDNAKNSLYLQMNSLRAEDTAVYYCARGGEGYGVDHYGLDVSGQGTTVTVSSGGGGSGGGGSGGGGSGGGGSGGGGSGGGGSEVQLLESGGGLVKPGGSLRLSCAASGFTVSSYTMNWVRQAPGKGLEWVSSISSSGRYIYYADSVKGRFTISRDNAKNSLYLQMNSLRAEDTAVYYCARDPRMVGNPHEFDIWGQGTMVTVSSGGGGSGGGGSGGGGSGGGGSGGGGSGGGGSEVQLVESGGGVVRPGGSLRLSCAASGFTFDDYAMSWVRQAPGKGLEWVSGITWNGGSTGYADSVKDRFTISRDNAKNSLYLQMNSLRAEDTALYYCVRDKYSYAWSYDDFDIWGQGTMVTVSS
On to B5, for which the “Jurkat-CD137/CHO-PD-1 Reporter Assay EC50” value in experiment [4] was 0.0583 nM. The Kd in experiment [5] was 0.295 nM; in experiment [6], 0.543 nM; in experiment [7] it was 7.77 nM; in experiment [8], 16.9 nM. In addition, the koff in experiment [5] came to 9.85e-05 s⁻¹; in experiment [6] it was 0.00017 s⁻¹; in [7], 0.00214 s⁻¹; in experiment [8], 0.00494 s⁻¹. The kon in experiment [5] was found to be 334000 M⁻¹ s⁻¹; in experiment [6] it was 313000 M⁻¹ s⁻¹; in experiment [7], 276000 M⁻¹ s⁻¹; in [8] it was 293000 M⁻¹ s⁻¹.

B6: TPP-1027: CD137A-6GS-HSA2-6GS-PD138G7(G109D)-His (bispecific antibody)
chain: EVQLVESGGGLVQPGGSLRLSCAASGFTLSNYWMNWVRQAPGKGLEWVANINQDGSERYYVDSVKGRFTISRDNAKNSLYLQMNSLRAEDTAVYYCARGGEGYGVDHYGLDVSGQGTTVTVSSGGGGSGGGGSGGGGSGGGGSGGGGSGGGGSEVQLVESGGGLVKPGGSLRLSCAASGFTFSNYNMNWVRQAPGKGLEWVSSISSAGTHIYYADSVKGRFTISRDNAKNSLYLQMNSLRAEDTAVYYCARDPHSTGWYKDFDYWGQGTLVTVSSGGGGSGGGGSGGGGSGGGGSGGGGSGGGGSEVQLVESGGGVVRPGGSLRLSCAASGFTFDDYAMSWVRQAPGKGLEWVSGITWNGGSTGYADSVKDRFTISRDNAKNSLYLQMNSLRAEDTALYYCVRDKYSYAWSYDDFDIWGQGTMVTVSSAAAHHHHHH
For the molecule B6, in experiment [4], the “Jurkat-CD137/CHO-PD-1 Reporter Assay EC50” value stood at 0.238 nM. In addition, in [9], the Kd is 0.023 nM, the koff came to 2.87e-05 s⁻¹ and the kon was found to be 1.25e+06 M⁻¹ s⁻¹. In experiment [10], this molecule had a Kd of 5.95 nM, a koff of 0.00246 s⁻¹ and a kon of 413000 M⁻¹ s⁻¹.

B7: TPP-1028: CD137A-6GS-HSA3-6GS-PD138G7(G109D)-His (bispecific antibody)
chain: EVQLVESGGGLVQPGGSLRLSCAASGFTLSNYWMNWVRQAPGKGLEWVANINQDGSERYYVDSVKGRFTISRDNAKNSLYLQMNSLRAEDTAVYYCARGGEGYGVDHYGLDVSGQGTTVTVSSGGGGSGGGGSGGGGSGGGGSGGGGSGGGGSEVQLLESGGGLVKPGGSLRLSCAASGFTVSSYTMNWVRQAPGKGLEWVSSISSSGRYIYYADSVKGRFTISRDNAKNSLYLQMNSLRAEDTAVYYCARDPRMVGNPHEFDIWGQGTMVTVSSGGGGSGGGGSGGGGSGGGGSGGGGSGGGGSEVQLVESGGGVVRPGGSLRLSCAASGFTFDDYAMSWVRQAPGKGLEWVSGITWNGGSTGYADSVKDRFTISRDNAKNSLYLQMNSLRAEDTALYYCVRDKYSYAWSYDDFDIWGQGTMVTVSSAAAHHHHHH
With B7, the “Jurkat-CD137/CHO-PD-1 Reporter Assay EC50” value in [4] worked out at 0.312 nM. In experiment [9], the equilibrium dissociation constant (Kd) was 0.0281 nM, the koff is 1.9e-05 s⁻¹ and the kon is 674000 M⁻¹ s⁻¹. In [10], this molecule registered an equilibrium dissociation constant (Kd) of 5.83 nM, a koff of 0.00235 s⁻¹ and a kon of 403000 M⁻¹ s⁻¹.

B8: TPP-1245 CD137A-6GS-PDA2-6GS-HSA2 (bispecific antibody)
chain: EVQLVESGGGLVQPGGSLRLSCAASGFTLSNYWMNWVRQAPGKGLEWVANINQDGSERYYVDSVKGRFTISRDNAKNSLYLQMNSLRAEDTAVYYCARGGEGYGVDHYGLDVSGQGTTVTVSSGGGGSGGGGSGGGGSGGGGSGGGGSGGGGSEVQLVESGGGVVRPGGSLRLSCAASGFTFDDYAMSWVRQAPGKGLEWVSGITWNAGSTGYADSVKGRFTISRDNAKNSLYLQMNSLRAEDTALYYCVRDKYSYAWSYDDFDIWGQGTMVTVSSGGGGSGGGGSGGGGSGGGGSGGGGSGGGGSEVQLVESGGGLVKPGGSLRLSCAASGFTFSNYNMNWVRQAPGKGLEWVSSISSAGTHIYYADSVKGRFTISRDNAKNSLYLQMNSLRAEDTAVYYCARDPHSTGWYKDFDYWGQGTLVTVSS
In the case of B8, the “Jurkat-CD137/CHO-PD-1 Reporter Assay EC50” value in [4] was found to be 0.113 nM. For the same molecule, the Kd in experiment [5] is 0.471 nM; in experiment [6], 0.728 nM; in [7], 87.6 nM; in [8], 102 nM. The koff amounted to 0.000179 s⁻¹ in experiment [5], 0.000263 s⁻¹ in [6], 0.0762 s⁻¹ in experiment [7] and 0.0505 s⁻¹ in experiment [8]. The on-rate (kon) in experiment [5] is 381000 M⁻¹ s⁻¹; in experiment [6], 361000 M⁻¹ s⁻¹; in [7], 869000 M⁻¹ s⁻¹; in [8], 493000 M⁻¹ s⁻¹.
